Blank lines part the entries; values can stand above or below the binder they belong to.
How the values were obtained:
full-length human tau [1] = target: T1, full-length human tau (human, UniProt P10636 2-757); experiment: SPR (Biacore S200), single-cycle, biotinylated antibody captured on streptavidin chip, tau as analyte, steady state affinity fit; IgG1 format
T1 construct: also called tau441; human tau isoform 2
Procedure: (§1) (C) Single-cycle kinetics of AB1 to full-length human tau was determined using surface plasmon resonance. […] (D) The molecular weight (MW), binding affinity (KD) and activity for each of the AB1 antibody formats.
(§2) Surface plasmon resonance measurements were conducted at the Monash Fragment Platform, Monash University, using the Biacore S200 biosensor (GE Healthcare). Biotinylated AB1 was captured on a streptavidin-coated CM5 chip. For biotinylation, AB1 IgG1 (29.5 μM), AB1 IgG2a (32.0 μM), AB1 Fab (22.9 μM) and AB1 scFv (60.4 μM) (in 137 mM NaCl, 2.7 mM KCl, 10 mM Na2HPO4, 1.8 mM KH2PO4) was added in a 1:1 ratio with EZ-link NHS-LC-LC-biotin (Thermo Scientific) and incubated at 25° C. for 1 hr. Antibodies were separated from free-unconjugated biotin using size-exclusion chromatography on a Superdex 200 10/300 GL (GE Healthcare) or Superdex 75 10/300 Increase (GE Healthcare) equilibrated in 137 mM NaCl, 2.7 mM KCl, 12 mM Na2HPO4, 1.8 mM KH2PO4, pH 7.4. Streptavidin was immobilized on the CM5 chip using amine coupling at 37° C. […]

full-length human tau [2] = target: T1, full-length human tau; experiment: SPR (Biacore S200), single-cycle, biotinylated antibody captured on streptavidin chip, tau as analyte, steady state affinity fit; IgG2a format
Procedure: as §1, §2

full-length human tau [3] = target: T1, full-length human tau; experiment: SPR (Biacore S200), single-cycle, biotinylated Fab captured on streptavidin chip, tau as analyte, steady state affinity fit; Fab, not IgG
Procedure: as §1, §2

T1 sequence (P10636 other isoform, or with tags, fused parts or gaps limits assumed): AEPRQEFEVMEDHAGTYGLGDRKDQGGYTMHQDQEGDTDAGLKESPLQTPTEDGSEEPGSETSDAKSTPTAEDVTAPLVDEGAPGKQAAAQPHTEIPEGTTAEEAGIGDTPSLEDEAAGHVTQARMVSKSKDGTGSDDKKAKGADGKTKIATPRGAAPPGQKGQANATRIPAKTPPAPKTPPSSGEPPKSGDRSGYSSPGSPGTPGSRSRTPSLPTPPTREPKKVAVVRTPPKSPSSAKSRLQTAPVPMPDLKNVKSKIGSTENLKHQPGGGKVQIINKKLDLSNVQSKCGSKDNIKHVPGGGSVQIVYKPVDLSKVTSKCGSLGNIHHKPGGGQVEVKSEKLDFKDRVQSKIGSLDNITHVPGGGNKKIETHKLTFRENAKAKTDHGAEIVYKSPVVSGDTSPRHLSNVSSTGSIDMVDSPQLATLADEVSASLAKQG

Kd (full-length human tau [1]): 407 nM
B1: AB1 IgG1 (antibody, V domains shown)
VH: QVQLKQSGPGLVQPSQSLSITCTVSGFSLTSYGVHWVRQSPGKGLEWLGVIWRGGSTDYNAAFMSRLSITKDNSKSQVFFKMNSLQADDTAIYYCAKNTNHRYDGYYAMDYWGQGTSVTVS
VL: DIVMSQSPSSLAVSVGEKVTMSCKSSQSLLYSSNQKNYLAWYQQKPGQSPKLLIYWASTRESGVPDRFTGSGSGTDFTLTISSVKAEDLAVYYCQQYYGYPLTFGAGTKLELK
notes: Expressed in Expi-CHO, about 156 kDa; For SPR it was biotinylated with NHS-LC-LC-biotin and captured on streptavidin; also called full-sized murine IgG1

Kd (full-length human tau [2]): 381 nM
B2: AB1 IgG2a (antibody, V domains shown)
VH: QVQLKQSGPGLVQPSQSLSITCTVSGFSLTSYGVHWVRQSPGKGLEWLGVIWRGGSTDYNAAFMSRLSITKDNSKSQVFFKMNSLQADDTAIYYCAKNTNHRYDGYYAMDYWGQGTSVTVS
VL: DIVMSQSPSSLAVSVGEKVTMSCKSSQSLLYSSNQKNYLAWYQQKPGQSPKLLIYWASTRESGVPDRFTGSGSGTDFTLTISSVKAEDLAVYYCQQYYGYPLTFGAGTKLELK
notes: About 156 kDa; Biotinylated and captured on streptavidin for SPR; also called full-sized murine IgG2a

Kd (full-length human tau [3]): 298 nM
B3: AB1 Fab (Fab, V domains shown)
VH: QVQLKQSGPGLVQPSQSLSITCTVSGFSLTSYGVHWVRQSPGKGLEWLGVIWRGGSTDYNAAFMSRLSITKDNSKSQVFFKMNSLQADDTAIYYCAKNTNHRYDGYYAMDYWGQGTSVTVS
VL: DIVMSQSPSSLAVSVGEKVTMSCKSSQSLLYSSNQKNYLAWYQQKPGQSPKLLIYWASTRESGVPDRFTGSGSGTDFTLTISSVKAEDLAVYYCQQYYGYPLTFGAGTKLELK
notes: Biotinylated and captured on streptavidin for SPR

— patent publication US20210347869A1 (UNIVERSITY OF QUEENSLAND, published 2021)
